Reference: US20230310559A1, “Use of Amylase or Maltose to Treat or Prevent Neurodegeneration” (St. Jude Children's Research Hospital, Inc., priority 2020, published 2023)
Numbering of substitutions follows the chain as printed. “Also recorded” adds a separate entry of the source.

B1: Amy-d: other Drosophila amylase, transgenic overexpression (protein, UniProt P81641 19-494, looked up)
Alpha-amylase B: QFDTNYASGRSGMVHLFEWKWDDIAAECENFLGPNGYAGVQVSPVNENAVKDSRPWWERYQPISYKLETRSGNEEQFASMVKRCNAVGVRTYVDVVFNHMAADGGTYGTGGSTASPSSKSYPGVPYSSLDFNPTCAISNYNDANEVRNCELVGLRDLNQGNSYVQDKVVEFLDHLIDLGVAGFRVDAAKHMWPADLAVIYGRLKNLNTDHGFASGSKAYIVQEVIDMGGEAISKSEYTGLGAITEFRHSDSIGKVFRGKDQLQYLTNWGTAWGFAASDRSLVFVDNHDNQRGHGAGGADVLTYKVPKQYKMASAFMLAHPFGTPRVMSSFSFTDTDQGPPTTDGHNIASPIFNSDNSCSGGWVCEHRWRQIYNMVAFRNTVGSDEIQNWWDNGSNQISFSRGSRGFVAFNNDNYDLNSSLQTGLPAGTYCDVISGSKSGSSCTGKTVTVGSDGRASIYIGSSEDDGVLAIHVNAKL
B2: Amy-p: other Drosophila amylase, transgenic overexpression (protein, UniProt P08144 19-494, looked up)
Alpha-amylase A: B1 Alpha-amylase B with Y458N
B3: Amyrel: a secreted amylase enzyme (Drosophila myokine), GENBANK Accession No. NP_477262.1, given by transgenic overexpression (protein, UniProt O18408 20-493, looked up)
Alpha-amylase-related protein: QHNPHWWGNRNTIVHLFEWKWSDIAQECESFLGPRGFAGVQVSPVNENILSAGRPWWERYQPISYKLTTRSGNEEEFGDMVRRCNDVGVRIYVDVLLNHMSGDFDGVAVGTAGTEAEPSKKSFPGVPYTAQDFHPTCEITDWNDRFQVQQCELVGLKDLDQSSDWVRSKLIEFLDHLIELGVAGFRVDAAKHMASEDLEYIYSSLSNLNIDHGFPHNSRPFIFQEVIDHGHETVSRDEYKDLGAVTEFRFSEEIGNAFRGNNALKWLQSWGTDWGFLPSGQALTFVDNHDNQRDAGAVLNYKSPRQYKMATAFHLAYPYGISRVMSSFAFDDHDTPPPQDAQERIISPEFDADGACVNGWICEHRWRQIYAMVGFKNAVRDTEITGWWDNGDNQISFCRGNKGFLAINNNLYDLSQDLNTCLPAGTYCDVISGSLIDGSCTGKSVTVNENGYGYIHIGSDDFDGVLALHVDAKV

What was measured:
[1] = system: Huntingtin-polyQ72-GFP aggregates in the Drosophila retina; assay: Analysis of pathogenic Huntingtin-polyQ72-GFP aggregation in Drosophila retina; format: in vivo; details: transgenic overexpression in Drosophila retinas during aging, compared to controls
Procedure: (§1) Cloning of Myokines and Fly Transgenesis. The coding sequences of Drosophila CG4666, CG8093, Amyrel, Ag5r2, Amy-d, and Amy-p were generated as synthetic minigenes and cloned into the pUASTattB vector with the EcoRI and KpnI restriction enzymes. These plasmids were then injected into attP40 and/or attP2 by using the site-specific phiC31 integrase (Markstein, et al. (2008) Nat. Genet. 40(4):476-483) to generate transgenic flies.
Analysis of Pathogenic Huntingtin Aggregation. Pathogenic Huntingtin-polyQ72-GFP protein aggregates (Zhang, et al. (2010) Genetics 184(4):1165-79) were imaged with an epifluorescence microscope and the number and total area of protein aggregates estimated with CELLPROFILER™. This analysis was done with male flies after aging at 25° C. for 30 days, and/or aging at 29° C. for 20 days. A custom-made script was used for image analysis in CELLPROFILER™.
Analysis of Huntingtin-GFP Aggregates in Drosophila Eye. Frozen Drosophila was used for imaging of the eyes using ZEISS SteREO Discovery.V12 microscope at a specific exposure time and consistent settings. The acquired gray scale images were then analyzed for the area occupied by aggregates (Huntingtin-GFP specks) using CELLPROFILER™ 3.0.0 pipeline.

[2] = system: Drosophila heads and thoraces; assay: Western blots of detergent-soluble and detergent-insoluble fractions of Drosophila heads and thoraces during aging; format: in vivo
Procedure: as §1
Western Blots of Detergent-Soluble and Detergent-Insoluble Fractions. Western blots for detergent-soluble and detergent-insoluble fractions were carried out as previously described (Demontis & Perrimon (2010) Cell 143(5):813-825). In brief, heads and thoraces were dissected from 30 male flies/sample and homogenized in ice-cold PBS with 1% TRITON™ X-100 containing protease and phosphatase inhibitors. Homogenates were centrifuged at 14,000 rpm at 4° C. and supernatants collected (TRITON™ X-100-soluble fraction). The remaining pellet was washed in ice-cold PBS with 1% TRITON™ X-100. The pellet was then resuspended in RIPA buffer containing 8M urea and 5% SDS, centrifuged at 14,000 rpm at 4° C., and the supernatant collected (TRITON™ X-100-insoluble fraction). Detergent-soluble and detergent-insoluble fractions were analyzed on 4-20% SDS-PAGE with anti-ubiquitin (Cell Signaling Technologies P4D1), anti-Ref(2)P/p62 (Abcam), anti-Atg8/GABARAP (Abcam), and/or anti-GFP (Cell Signaling Technologies) antibodies. Ponceau S staining, anti-Tubulin antibodies (Cell Signaling Technologies), and/or anti-actin antibodies were used as loading controls.
Soluble and Insoluble Protein Fractionation from Drosophila Tissues. Thoraces or heads were dissected from 30 male flies and homogenized in 100 μL ice-cold TRITON™ X-100 buffer (1% TRITON™ X-100 in PBS containing protease inhibitor and phosphatase inhibitor) for 5 minutes at highest speed. Homogenates were centrifuged at 14000 rpm at 4° C. for 10 minutes and supernatant collected (TRITON™ X-100-soluble fraction). The remaining pellet was washed in 400 μL of TRITON™ X-100 buffer, twice at 14000 rpm for 5 minutes at 4° C. The pellet was then resuspended in 100 μL 1× RIPA buffer containing 8M urea and 5% SDS at room temperature, centrifuged at 14000 rpm at 4° C. for 10 minutes, and supernatant was collected (TRITON™ X-100-insoluble fraction). Six μL of soluble/insoluble protein extracts were boiled with sample buffer containing DTT and separated by gel electrophoresis.

[3] = system: Drosophila brains and retinas; assay: Whole-mount immunostaining of Drosophila brains and retinas (poly-ubiquitin protein aggregates); format: in vivo; details: muscle-specific overexpression with Mhc-Gal4 or Act88F-GS-Gal4, compared to isogenic controls
Procedure: Whole-Mount Immunostaining of Drosophila Brains and Retinas. The immunostaining of brains and retinas was carried out using established methods (Demontis & Perrimon (2009) Development 136(6):983-93; Demontis & Perrimon (2010) Cell 143(5):813-825). In brief, retinas and brains were dissected, fixed for 30 minutes in phosphate-buffered saline (PBS) with 4% paraformaldehyde and 0.2% TRITON⋅ X-100 at room temperature, washed for >3 times in PBS with 0.2% TRITON⋅ X-100 at room temperature, and immunostained overnight at 4° C. with rabbit anti-poly-ubiquitin (FK2; Enzo Life Sciences) and anti-Ref(2)P/p62 antibodies (Abeam). After washes with PBS with 0.2% TRITON⋅ X-100, the samples were incubated for 2 hours at room temperature with secondary antibodies and phalloidin conjugated to a fluorescent dye sold under the tradename ALEXA FLUOR® 635. The samples were subsequently washed, mounted in antifade medium and imaged on a Zeiss LSM 880 confocal microscope.

Drosophila = assay: Startle-induced negative geotaxis; format: in vivo; details: muscle-specific overexpression, compared to isogenic controls
Procedure: Startle-Induced Negative Geotaxis. Startle-induced negative geotaxis was carried out according to established methods. Specifically, flies were tapped and the number of flies that reached the top of the vial was scored after 20 seconds.

[4] = system: Drosophila retina with mutant tau^V337M; assay: Age-related retinal degeneration induced by mutant tau V337M; format: in vivo; details: overexpression in Drosophila
[5] = Maltose assays of fly hemolymph and bodies; format: in vivo, Drosophila; details: Amyrel overexpression, in comparison with isogenic controls
Procedure: Maltose Assays. Flies were decapitated and placed in a perforated 0.6 mL tube resting in a 1.5 mL tube, which was centrifuged at 1700 g for 6 minutes at 4° C. to collect the hemolymph ([…], et al. (2009) Cell Metab. 10:199-207). Equal volumes of hemolymph (1 μL) were used for subsequent determination of maltose levels. To avoid interference from eye pigments (Al-Anzi, et al. (2010) PLoS ONE 5(8):e12353), flies (n=10/biological replicate) were decapitated and homogenized with a Next Advance BULLET BLENDER® and 0.5-mm zirconium beads in 100 μL of maltose assay buffer (MAB). Body homogenates were then collected after centrifugation at maximum speed for 10 minutes to remove cuticle debris. Subsequently, the quantification of maltose concentration in the hemolymph and bodies was done with the maltose assay kit (Sigma-Aldrich), according to manufacturer's instructions. In brief, hemolymph and body homogenates were diluted 1:40 in MAB. […] After 1 hour, the absorbance was read at 570 nm with a Tecan Infinite 200 Pro. Blank (0 maltose standards) readings were subtracted from all readings. Maltose levels were calculated from the standard curve after subtracting the absorbance read in the absence of glucosidase treatment, which accounts for background glucose levels, from the absorbance read in duplicate samples treated with glucosidase.

[6] = Amylase activity assay of fly body homogenates; format: in vivo, Drosophila; details: Amyrel overexpression, in comparison with isogenic controls
Procedure: Amylase Activity Assay. Colorimetric detection of amylase activity was performed according to the manufacturer's instructions (Sigma-Aldrich). In brief, five flies were decapitated and placed on ice in a 1.5 ml tube. The decapitated bodies were homogenized in 150 μL of Amylase Assay Buffer (AAB). The homogenate was collected after high-speed centrifugation for 10 minutes. For this assay, 5 μL the body homogenate or standard was added to a well in a 96-well plate and brought up to 50 μL with AAB and water, respectively. A master reaction mix was made to conduct a colorimetric assay, and 100 μL was added to each well. The plate was mixed well using a horizontal shaker. After 2-3 minutes the absorbance was measured at 405 nm.

Drosophila heads = assay: Head transcriptome of flies with muscle-specific Amyrel overexpression; format: in vivo

Row | Molecule | pathogenic huntingtin (Htt-Q72-GFP) aggregates, total area and number of speckles [1] | levels of polyubiquitinated proteins in heads ([2]; flies with pathogenic Huntingtin (Htt-polyQ120) expression in the retina, muscle-specific overexpression) | proteostasis in skeletal muscle ([2]; muscle-specific overexpression) | age-related accumulation of proteasome substrates (poly-ubiquitinated proteins, detergent-insoluble fractions) in head tissues ([2]; muscle-specific overexpression, 10, 30 and 60 days) | Atg8 conversion and levels (autophagy) ([2]; muscle-specific overexpression, heads) | amount of poly-ubiquitin protein aggregates in the retina and brain in old age [3] | capacity for startle-induced negative geotaxis during aging (Drosophila) | percentage of flies unable to respond to stimulation, increase with aging (Drosophila) | age-related neurodegeneration (retinal degeneration, rough eye phenotype) induced by tau^V337M [4] | circulating (hemolymph) maltose [5] | whole body maltose [5] | amylase activity [6] | induction of Hsp23 gene (Drosophila heads) | genes involved in proteostasis, including several chaperones and proteases (Drosophila heads; compared to isogenic controls)
1 | B1 | reduced | – | – | – | – | – | – | – | – | – | – | – | – | –
2 | B2 | reduced | – | – | – | – | – | – | – | – | – | – | – | – | –
3 | B3 | less so; also recorded: decrease in an age-dependent manner | reduced the levels of polyubiquitinated proteins | did not regulate proteostasis in skeletal muscle | reduced the age-related accumulation of proteasome substrates; also recorded: reduced the age-related increase in polyubiquitinated proteins | not significantly modulated | significantly reduced | preserves the capacity for negative geotaxis | less so | largely prevented | increase | increase | increase | > 8 fold | induced
